Each block holds one binder with its values, some of them ahead of it.
Key:
P12bHq = target: T1, P12bHq; experiment: two-hybrid library CCNG1;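 also: natural log of median RNA to DNA barcode read ratio; higher means stronger binding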
T1 chain: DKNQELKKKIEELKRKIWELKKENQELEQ

P5bHq = target: T2, P5bHq; experiment: two-hybrid library CCNG1;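 also: natural log of median RNA to DNA barcode read ratio; higher means stronger binding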
T2 chain: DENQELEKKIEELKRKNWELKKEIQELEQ

P2bHq = target: T3, P2bHq; experiment: two-hybrid library CCNG1;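 also: natural log of median RNA to DNA barcode read ratio; higher means stronger binding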
T3 chain: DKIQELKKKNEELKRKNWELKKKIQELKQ

P6bHq = target: T4, P6bHq; experiment: two-hybrid library CCNG1;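 also: natural log of median RNA to DNA barcode read ratio; higher means stronger binding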
T4 chain: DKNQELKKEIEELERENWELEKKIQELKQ

P4bHq = target: T5, P4bHq; experiment: two-hybrid library CCNG1;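 also: natural log of median RNA to DNA barcode read ratio; higher means stronger binding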
T5 chain: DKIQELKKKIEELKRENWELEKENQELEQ

P8bHq = target: T6, P8bHq; experiment: two-hybrid library CCNG1;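 also: natural log of median RNA to DNA barcode read ratio; higher means stronger binding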
T6 chain: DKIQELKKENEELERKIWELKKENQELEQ

P3bHq = target: T7, P3bHq; experiment: two-hybrid library CCNG1
T7 chain: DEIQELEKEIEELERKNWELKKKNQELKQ

P9bHq = target: T8, P9bHq; experiment: two-hybrid library CCNG1
T8 chain: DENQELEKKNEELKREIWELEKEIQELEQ

P1bHq = target: T9, P1bHq; experiment: two-hybrid library CCNG1
T9 chain: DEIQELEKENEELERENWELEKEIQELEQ

P7bHq = target: T10, P7bHq; experiment: two-hybrid library CCNG1
T10 chain: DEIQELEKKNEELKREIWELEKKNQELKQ

P2-AA-1HAA-R = target: T11, P2-AA-1HAA-R; experiment: two-hybrid library CCmax; details: mean of both orientations
T11 chain: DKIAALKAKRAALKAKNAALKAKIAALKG

P2-AA-1HAA-V = target: T12, P2-AA-1HAA-V; experiment: two-hybrid library CCmax; details: mean of both orientations
T12 chain: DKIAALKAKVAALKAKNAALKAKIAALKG

P2-AA-1HAA-E = target: T13, P2-AA-1HAA-E; experiment: two-hybrid library CCmax; details: mean of both orientations
T13 chain: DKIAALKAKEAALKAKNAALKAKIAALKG

P2-AA-1HAA-I = target: T14, P2-AA-1HAA-I; experiment: two-hybrid library CCmax; details: mean of both orientations
T14 chain: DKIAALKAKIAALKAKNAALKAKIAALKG

P2-AA = target: T15, P2-AA; experiment: two-hybrid library CCmax; details: mean of both orientations
T15 chain: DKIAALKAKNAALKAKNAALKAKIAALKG

P2-AA-1HAA-S = target: T16, P2-AA-1HAA-S; experiment: two-hybrid library CCmax; details: mean of both orientations
T16 chain: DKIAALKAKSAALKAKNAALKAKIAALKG

P2-AA-1HAA-T = target: T17, P2-AA-1HAA-T; experiment: two-hybrid library CCmax; details: mean of both orientations
T17 chain: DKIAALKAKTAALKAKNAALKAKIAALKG

P2-AA-1HAA-D = target: T18, P2-AA-1HAA-D; experiment: two-hybrid library CCmax; details: mean of both orientations
T18 chain: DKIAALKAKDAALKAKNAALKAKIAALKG

P2-AA-1HAA-H = target: T19, P2-AA-1HAA-H; experiment: two-hybrid library CCmax; details: mean of both orientations
T19 chain: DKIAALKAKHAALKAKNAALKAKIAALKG

P1A = target: T20, P1A; experiment: two-hybrid library CCNG1
T20 chain: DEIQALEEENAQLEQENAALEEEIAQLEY

P12A = target: T21, P12A; experiment: two-hybrid library CCNG1
T21 chain: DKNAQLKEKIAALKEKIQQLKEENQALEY

P7A = target: T22, P7A; experiment: two-hybrid library CCNG1
T22 chain: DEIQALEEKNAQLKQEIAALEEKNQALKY

P5A = target: T23, P5A; experiment: two-hybrid library CCNG1
T23 chain: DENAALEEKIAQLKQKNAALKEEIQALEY

P9A = target: T24, P9A; experiment: two-hybrid library CCNG1
T24 chain: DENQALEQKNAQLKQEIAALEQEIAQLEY

P8A = target: T25, P8A; experiment: two-hybrid library CCNG1
T25 chain: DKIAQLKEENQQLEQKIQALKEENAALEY

P3A = target: T26, P3A; experiment: two-hybrid library CCNG1
T26 chain: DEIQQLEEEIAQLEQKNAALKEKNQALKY

P2A = target: T27, P2A; experiment: two-hybrid library CCNG1
T27 chain: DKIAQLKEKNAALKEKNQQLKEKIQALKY

P4A = target: T28, P4A; experiment: two-hybrid library CCNG1
T28 chain: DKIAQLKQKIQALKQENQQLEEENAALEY

P6A = target: T29, P6A; experiment: two-hybrid library CCNG1
T29 chain: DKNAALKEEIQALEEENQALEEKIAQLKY

4H3112-bH = target: T30, 4H3112-bH; experiment: two-hybrid library CCNG1
T30 chain: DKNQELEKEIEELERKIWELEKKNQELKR

4H2702-bH = target: T31, 4H2702-bH; experiment: two-hybrid library CCNG1
T31 chain: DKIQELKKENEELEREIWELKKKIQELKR

4H2627-bH = target: T32, 4H2627-bH; experiment: two-hybrid library CCNG1
T32 chain: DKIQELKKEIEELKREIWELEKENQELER

4H2673-bH = target: T33, 4H2673-bH; experiment: two-hybrid library CCNG1
T33 chain: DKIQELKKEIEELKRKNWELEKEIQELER

4H797-bH = target: T34, 4H797-bH; experiment: two-hybrid library CCNG1
T34 chain: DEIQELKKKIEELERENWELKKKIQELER

4H575-bH = target: T35, 4H575-bH; experiment: two-hybrid library CCNG1
T35 chain: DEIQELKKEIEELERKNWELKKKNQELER

4H780-bH = target: T36, 4H780-bH; experiment: two-hybrid library CCNG1
T36 chain: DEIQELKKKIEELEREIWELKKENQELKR

4H3926-bH = target: T37, 4H3926-bH; experiment: two-hybrid library CCNG1
T37 chain: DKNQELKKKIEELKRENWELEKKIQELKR

4H918-bH = target: T38, 4H918-bH; experiment: two-hybrid library CCNG1
T38 chain: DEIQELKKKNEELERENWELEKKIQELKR

4H4073-bH = target: T39, 4H4073-bH; experiment: two-hybrid library CCNG1
T39 chain: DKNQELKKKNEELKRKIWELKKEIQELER

4H1158-bH = target: T40, 4H1158-bH; experiment: two-hybrid library CCNG1
T40 chain: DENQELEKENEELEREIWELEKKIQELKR

4H170-bH = target: T41, 4H170-bH; experiment: two-hybrid library CCNG1
T41 chain: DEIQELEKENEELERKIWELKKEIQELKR

4H3427-bH = target: T42, 4H3427-bH; experiment: two-hybrid library CCNG1
T42 chain: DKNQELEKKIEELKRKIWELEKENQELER

4H457-bH = target: T43, 4H457-bH; experiment: two-hybrid library CCNG1
T43 chain: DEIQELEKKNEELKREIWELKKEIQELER

4H3010-bH = target: T44, 4H3010-bH; experiment: two-hybrid library CCNG1
T44 chain: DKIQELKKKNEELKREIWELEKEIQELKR

4H754-bH = target: T45, 4H754-bH; experiment: two-hybrid library CCNG1
T45 chain: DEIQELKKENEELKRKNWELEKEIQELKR

4H346-bH = target: T46, 4H346-bH; experiment: two-hybrid library CCNG1
T46 chain: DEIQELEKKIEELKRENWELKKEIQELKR

4H855-bH = target: T47, 4H855-bH; experiment: two-hybrid library CCNG1
T47 chain: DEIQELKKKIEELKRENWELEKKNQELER

4H1831-bH = target: T48, 4H1831-bH; experiment: two-hybrid library CCNG1
T48 chain: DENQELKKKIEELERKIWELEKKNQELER

4H118-bH = target: T49, 4H118-bH; experiment: two-hybrid library CCNG1
T49 chain: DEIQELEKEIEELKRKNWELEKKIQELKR

4H968-bH = target: T50, 4H968-bH; experiment: two-hybrid library CCNG1
T50 chain: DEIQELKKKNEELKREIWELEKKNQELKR

4H683-bH = target: T51, 4H683-bH; experiment: two-hybrid library CCNG1
T51 chain: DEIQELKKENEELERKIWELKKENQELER

4H2586-bH = target: T52, 4H2586-bH; experiment: two-hybrid library CCNG1
T52 chain: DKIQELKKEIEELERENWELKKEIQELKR

4H953-bH = target: T53, 4H953-bH; experiment: two-hybrid library CCNG1
T53 chain: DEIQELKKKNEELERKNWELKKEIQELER

P11A = target: T54, P11A; experiment: two-hybrid library CCNG1
T54 chain: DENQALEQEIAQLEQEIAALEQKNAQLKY

B2: P1-AA-1HAA-L (peptide)
chain: DEIAALEAELAALEAENAALEAEIAALEG
interaction score (P2-AA-1HAA-R): 1.98 | interaction score (P2-AA-1HAA-V): 1.87 | interaction score (P2-AA-1HAA-E): 1.89 | interaction score (P2-AA-1HAA-I): 1.62 | interaction score (P2-AA): 1.84 | interaction score (P2-AA-1HAA-S): 1.77 | interaction score (P2-AA-1HAA-T): 1.93 | interaction score (P2-AA-1HAA-D): 1.71 | interaction score (P2-AA-1HAA-H): 1.95

B6: P1-AA-1HAA-T (peptide)
chain: DEIAALEAETAALEAENAALEAEIAALEG
interaction score (P2-AA-1HAA-R): 1.93 | interaction score (P2-AA-1HAA-V): 2.02 | interaction score (P2-AA-1HAA-E): 2.02 | interaction score (P2-AA-1HAA-I): 2.05 | interaction score (P2-AA): 1.88 | interaction score (P2-AA-1HAA-S): 2.1 | interaction score (P2-AA-1HAA-T): 1.69 | interaction score (P2-AA-1HAA-D): 1.99 | interaction score (P2-AA-1HAA-H): 2.07

Continued, values first:

interaction score (P12bHq): -0.763 | interaction score (P5bHq): -0.597 | interaction score (P2bHq): -0.425 | interaction score (P6bHq): 0.286 | interaction score (P4bHq): 0.195 | interaction score (P8bHq): -0.489 | interaction score (P3bHq): -0.851 | interaction score (P9bHq): 1.15 | interaction score (P1bHq): -1.45 | interaction score (P7bHq): 0.639
B1: P12bHq (peptide)
chain: DKNQELKKKIEELKRKIWELKKENQELEQ

interaction score (P1A): -1.2 | interaction score (P12A): -1.24 | interaction score (P7A): -1.15 | interaction score (P5A): -1.22 | interaction score (P9A): -0.254 | interaction score (P8A): -1.25 | interaction score (P3A): 0.438 | interaction score (P2A): -1.43 | interaction score (P4A): -1.48 | interaction score (P6A): -1.16
B3: P12A (peptide)
chain: DKNAQLKEKIAALKEKIQQLKEENQALEY

interaction score (4H3112-bH): -0.598 | interaction score (4H2702-bH): 0.109 | interaction score (4H2627-bH): 1.81 | interaction score (4H2673-bH): 0.836 | interaction score (4H797-bH): 0.508 | interaction score (4H575-bH): 0.888 | interaction score (4H780-bH): 0.975 | interaction score (4H3926-bH): 1.63 | interaction score (4H918-bH): -0.233 | interaction score (4H4073-bH): 1.57 | interaction score (4H1158-bH): 0.619 | interaction score (4H170-bH): 0.0131 | interaction score (4H3427-bH): 0.596 | interaction score (4H457-bH): 0.951 | interaction score (4H3010-bH): 1.95 | interaction score (4H754-bH): 0.159 | interaction score (4H346-bH): 0.268 | interaction score (4H855-bH): -0.335 | interaction score (4H1831-bH): 0.197 | interaction score (4H118-bH): 0.729 | interaction score (4H968-bH): 0.725 | interaction score (4H683-bH): 1.13 | interaction score (4H2586-bH): 0.198 | interaction score (4H953-bH): 0.0112
B4: 4H1158-bH (peptide)
chain: DENQELEKENEELEREIWELEKKIQELKR

interaction score (P1A): -0.233 | interaction score (P12A): 2.09 | interaction score (P7A): -1.77 | interaction score (P11A): -0.318 | interaction score (P5A): 0.167 | interaction score (P9A): 0.145 | interaction score (P8A): -0.16 | interaction score (P3A): 0.195 | interaction score (P2A): -0.397 | interaction score (P4A): 1.99 | interaction score (P6A): -0.873
B5: P11A (peptide)
chain: DENQALEQEIAQLEQEIAALEQKNAQLKY

— publication PMC10397247
